Laboratory results taken from paper PMC7515959, “Imaging angiogenesis in patients with head and neck squamous cell carcinomas by [^68Ga]Ga-DOTA-E-[c(RGDfK)]2 PET/CT” (European Journal of Nuclear Medicine and Molecular Imaging, 2020).

What was measured:
clinical = settings: human, in vivo, iv, SUVmax tumour
Method: (§1) Included patients had no restrictions in food or medication intake. ^68Ga-RGD was administered intravenously using a slow bolus injection of 8 ml over 40 s (200 ± 29 MBq; range 119–218 MBq, 42 ± 8 μg; range 34–58 μg). The net injected dose was calculated by measuring the syringe before and after ^68Ga-RGD administration using a dedicated dose calibrator (VDS-405, Comecer, Joure, The Netherlands). Patients were monitored for (severe) adverse events according to the Common Terminology Criteria for Adverse Events, version 4.03. Venous blood samples at 1, 2, 5, 10, 30 and 90 min after injection were taken for pharmacokinetic and safety analysis. The concentration of ^68Ga-RGD in the blood samples (Bq/ml) was calculated by gamma counter (Wizard Detector Gamma Counter, PerkinElmer Inc., Waltham, MA, USA) while simultaneously measuring 1% standards. Safety analysis included a complete blood count test and assessment of kidney and liver function by measuring the eGFR (MDRD), total bilirubin and aspartate aminotransferase and alanine aminotransferase levels.
(§2) Five patients underwent three static whole-body PET/CT at 30, 60 and 90 min post injection on a Biograph 40 mCT scanner (Siemens Medical Solutions, Knoxville TN, USA) equipped with a dual-slice CT for 4 min of PET data per bed position, with bed positions from the base of the skull to trochanter major. For each PET/CT image, two image reconstructions were used, with a TrueX algorithm with point spread function (PSF) and time of flight (TOF) measurements, using three iterations, 21 subsets, matrix size 256 × 256 (pixel spacing of 3.2 mm) or 200 × 200 (pixel spacing of 4.07 mm), full width at half maximum (FWHM) of 5 mm. Post-processing was performed using a 3D Gaussian filter kernel, 7.5 or 3 mm. The other five patients underwent 60 min dynamic ^68Ga-RGD PET/CT starting at start of injection, of the head and neck region (15 cm FOV), to obtain time–activity curves in malignant lesions. These images were reconstructed in 33 frames ([…], 10 × 5 s, 3 × 10 s, 2 × 15 s, 5 × 30 s, 5 × 120 s, 5 × 300 s and 2 × 600 s). For all patients, a low-dose CT scan was acquired for attenuation correction and anatomical reference, with an automatically modulated X-ray tube voltage and current (100 kV, 30 mA) using Care kV and Care Dose4D (Siemens Healthcare), 512 × 512 voxels; 0.98 pixel spacing; 3 mm slice thickness; 1 pitch. The CT images for anatomical reference were reconstructed with a B31f convolution kernel, slice thickness 5 mm.
(§3) All ^68Ga-RGD PET/CT scans were evaluated by two experienced nuclear medicine physicians (WJGO, EHJGA) on a dedicated workstation (Oasis software, Segami Corporation, Columbia, MD, USA) with a PET/CT viewer for automatic image registration. A volume-of-interest (VOI) around the tumour mass was manually drawn to obtain a maximum standardised uptake value (SUVmax) of the tumour area—drawn on the static PET/CT image acquired 60 min post injection—and to determine the 41% SUVmax isocontour and SUVpeak (highest mean SUV value of 1 cm^3) within this tumour volume. The same analysis was applied on the dynamic imaging series, in which a reconstructed frame of 4 min (56–60 min p.i.) was extracted from the dynamic imaging series to obtain a static image for tumour volume delineation. The dynamic imaging series were also used to obtain time–activity curves using the PMOD Medical Imaging Program version 3.15 (PMOD technologies LLC, Zürich, Switzerland). Curves were estimated for both tumour lesions and background tissue. Tumour delineation was based on the evaluation in Oasis (Oasis software, Segami Corporation, Columbia, MD, USA), drawn on the last frame of the PET series, and subsequently copied to the other frames. For time–activity curves of the muscle, a VOI of 1.5 ml was defined in dorsolateral musculature (contralateral to the tumour) using the CT images and subsequently copied to the dynamic dataset. […]

αvβ3 integrin [1] = target: T1, αvβ3 integrin (Homo sapiens, UniProt P05106+P06756); experiment: clinical; settings: in vivo
T1 construct: integrin αvβ3 predominantly expressed in endothelial cells of tumour-associated blood vessels; from tissue; host or cells: tumour lesions and lymph nodes of living patients with oral squamous cell carcinoma (in vivo PET/CT)
Method: as §1, §2, §3

αvβ3 integrin [2] = tested on: T2, αvβ3 integrin; experiment: clinical; settings: human, in vivo, iv, 200 MBq, total radioactivity
T2 construct: integrin αvβ3 predominantly expressed in endothelial cells of tumour-associated blood vessels; from tissue; host or cells: tumour lesions and lymph nodes of living patients with oral squamous cell carcinoma (in vivo PET/CT)
Method: as §1, §2, §3

[3] = design: species or system human; settings: in vivo
Method: as §1, with “[…] The biological half-life of ^68Ga-RGD was calculated using bi-exponential regression” for “Safety”, “in MATLAB version R2014b (MathWorks, Natick, MA, USA). The analyses of optimal imaging time point and uptake values were analysed using SPSS Statistics, version 22.0.0.1 (IBM), with” for “included”, “one-way ANOVA followed by a Bonferroni post hoc” for “complete blood count”, “to adjust for multiple comparisons. […]” for “and assessment of kidney and liver function by measuring the eGFR (MDRD), total bilirubin and aspartate aminotransferase and alanine aminotransferase levels.”

[4] = design: species or system human; settings: in vivo; remark: listed apart in the source
Method: Five patients underwent three static whole-body PET/CT at 30, 60 and 90 min post injection on a Biograph 40 mCT scanner (Siemens Medical Solutions, Knoxville TN, USA) equipped with a dual-slice CT for 4 min of PET data per bed position, with bed positions from the base of the skull to trochanter major. For each PET/CT image, two image reconstructions were used, with a TrueX algorithm with point spread function (PSF) and time of flight (TOF) measurements, using three iterations, 21 subsets, matrix size 256 × 256 (pixel spacing of 3.2 mm) or 200 × 200 (pixel spacing of 4.07 mm), full width at half maximum (FWHM) of 5 mm. Post-processing was performed using a 3D Gaussian filter kernel, 7.5 or 3 mm. […]
All ^68Ga-RGD PET/CT scans were evaluated by two experienced nuclear medicine physicians (WJGO, EHJGA) on a dedicated workstation (Oasis software, Segami Corporation, Columbia, MD, USA) with a PET/CT viewer for automatic image registration. […]
Numerical data are presented as mean ± standard deviation (SD). […] The biological half-life of ^68Ga-RGD was calculated using bi-exponential regression analysis in MATLAB version R2014b (MathWorks, Natick, MA, USA). The analyses of optimal imaging time point and uptake values were analysed using SPSS Statistics, version 22.0.0.1 (IBM), with a one-way ANOVA followed by a Bonferroni post hoc test to adjust for multiple comparisons. […]

[5] = design: species or system human; settings: in vivo; remark: listed apart in the source
Method: as §1

T1 sequence (P06756 31-889 limits assumed): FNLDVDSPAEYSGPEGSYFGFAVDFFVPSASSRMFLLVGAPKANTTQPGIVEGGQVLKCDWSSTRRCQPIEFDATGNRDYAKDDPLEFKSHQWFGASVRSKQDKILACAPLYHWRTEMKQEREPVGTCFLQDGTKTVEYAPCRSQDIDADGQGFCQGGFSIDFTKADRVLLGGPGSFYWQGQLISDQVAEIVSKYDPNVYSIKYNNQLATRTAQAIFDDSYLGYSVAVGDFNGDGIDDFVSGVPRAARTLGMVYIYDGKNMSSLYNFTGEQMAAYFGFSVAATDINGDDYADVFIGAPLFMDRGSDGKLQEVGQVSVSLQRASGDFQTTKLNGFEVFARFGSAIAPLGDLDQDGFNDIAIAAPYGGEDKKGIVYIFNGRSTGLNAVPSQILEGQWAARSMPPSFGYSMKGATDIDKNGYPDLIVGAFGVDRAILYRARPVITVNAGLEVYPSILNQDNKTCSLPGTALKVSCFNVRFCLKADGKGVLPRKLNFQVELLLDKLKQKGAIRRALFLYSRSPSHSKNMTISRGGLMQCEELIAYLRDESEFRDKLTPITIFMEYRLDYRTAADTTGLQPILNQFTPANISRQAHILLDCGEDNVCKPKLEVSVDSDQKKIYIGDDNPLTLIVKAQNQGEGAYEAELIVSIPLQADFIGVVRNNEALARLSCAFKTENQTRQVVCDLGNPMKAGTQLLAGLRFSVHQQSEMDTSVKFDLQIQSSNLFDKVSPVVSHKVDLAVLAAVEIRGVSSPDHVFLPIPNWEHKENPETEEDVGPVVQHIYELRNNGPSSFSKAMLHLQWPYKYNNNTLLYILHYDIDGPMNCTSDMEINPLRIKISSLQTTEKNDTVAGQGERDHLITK
T1 sequence (P06756 891-1048 limits assumed): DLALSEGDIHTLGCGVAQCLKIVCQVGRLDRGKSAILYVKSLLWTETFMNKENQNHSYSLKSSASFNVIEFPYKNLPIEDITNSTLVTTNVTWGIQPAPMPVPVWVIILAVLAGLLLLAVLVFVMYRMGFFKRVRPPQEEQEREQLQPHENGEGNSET
T1 sequence (P05106 27-788): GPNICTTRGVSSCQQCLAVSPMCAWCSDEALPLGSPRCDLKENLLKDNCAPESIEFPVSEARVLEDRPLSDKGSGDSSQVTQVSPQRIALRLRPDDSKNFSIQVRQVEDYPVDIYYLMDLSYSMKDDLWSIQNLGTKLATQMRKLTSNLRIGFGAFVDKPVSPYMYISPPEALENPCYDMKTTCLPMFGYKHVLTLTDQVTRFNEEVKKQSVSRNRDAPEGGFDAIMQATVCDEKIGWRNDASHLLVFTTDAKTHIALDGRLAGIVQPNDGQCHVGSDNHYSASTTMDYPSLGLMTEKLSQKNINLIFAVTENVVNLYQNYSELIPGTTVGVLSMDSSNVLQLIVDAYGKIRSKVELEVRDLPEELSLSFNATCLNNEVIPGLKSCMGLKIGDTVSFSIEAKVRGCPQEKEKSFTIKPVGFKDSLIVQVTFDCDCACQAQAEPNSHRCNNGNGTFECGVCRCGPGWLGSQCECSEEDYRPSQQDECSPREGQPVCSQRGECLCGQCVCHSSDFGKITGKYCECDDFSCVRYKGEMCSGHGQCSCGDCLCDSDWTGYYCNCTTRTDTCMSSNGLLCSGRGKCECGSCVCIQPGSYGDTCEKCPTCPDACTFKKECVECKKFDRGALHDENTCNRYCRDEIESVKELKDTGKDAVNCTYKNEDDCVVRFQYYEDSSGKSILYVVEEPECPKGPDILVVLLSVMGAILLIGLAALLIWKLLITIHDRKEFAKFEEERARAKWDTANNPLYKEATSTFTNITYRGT

Structure (SMILES): N=C(N)NCCC[C@@H]1NC(=O)[C@H](CCCCNC(=O)CC[C@H](NC(=O)CN2CCN(CC(=O)O)CCN(CC(=O)O)CCN(CC(=O)O)CC2)C(=O)NCCCC[C@@H]2NC(=O)[C@@H](Cc3ccccc3)NC(=O)[C@H](CC(=O)O)NC(=O)CNC(=O)[C@H](CCCNC(=N)N)NC2=O)NC(=O)[C@@H](Cc2ccccc2)NC(=O)[C@H](CC(=O)O)NC(=O)CNC1=O [^68Ga-RGD, [^68Ga]Ga-DOTA-E-[c(RGDfK)]2, metal not drawn]
- SUV at 1 h (clinical): 6.5 SUV
- SUVmax in lymph nodes with radiotracer uptake, range (αvβ3 integrin [1]): 1.8-7.6
- time after injection at which plateau phase was reached in tumour tissue (αvβ3 integrin [1]): 15 min
- time after injection at which tracer accumulation in tumour tissue plateaued (αvβ3 integrin [1]): 10 min
- tumour-to-muscle tissue ratio (mean) (αvβ3 integrin [1]): 6.4 ± 0.7
- SUV (αvβ3 integrin [2]; mean SUVmax in lymph nodes with radiotracer uptake): 4.4 ± 2.3 SUV
- SUV at 0.5 h (αvβ3 integrin [2]; mean SUVmax in tumour tissue): 5.7 ± 0.8 SUV
- SUV at 1 h (αvβ3 integrin [2]; mean SUVmax in tumour tissue): 5.5 ± 1.2 SUV
- SUV at 1.5 h (αvβ3 integrin [2]; mean SUVmax in tumour tissue): 4.8 ± 1.2 SUV
- elimination half-life [3]: 23.0 ± 2.3 min
- uptake by blood cells (whole blood versus plasma concentration) [3]: not taken up by the blood cells
- distribution half-life (t1/2α) [4]: 0.14 ± 0.07 min
- laboratory values [5]: within normal ranges
- vital signs and (serious) adverse events [5]: no changes in vital signs nor any (serious) adverse events
